Numbering of substitutions follows the chain as printed.
T1: TG7 (human, UniProt Q96PF1)
T1 construct: recombinant, Zedira; also called recombinant human TG7
T1 sequence (enzyme, looked up): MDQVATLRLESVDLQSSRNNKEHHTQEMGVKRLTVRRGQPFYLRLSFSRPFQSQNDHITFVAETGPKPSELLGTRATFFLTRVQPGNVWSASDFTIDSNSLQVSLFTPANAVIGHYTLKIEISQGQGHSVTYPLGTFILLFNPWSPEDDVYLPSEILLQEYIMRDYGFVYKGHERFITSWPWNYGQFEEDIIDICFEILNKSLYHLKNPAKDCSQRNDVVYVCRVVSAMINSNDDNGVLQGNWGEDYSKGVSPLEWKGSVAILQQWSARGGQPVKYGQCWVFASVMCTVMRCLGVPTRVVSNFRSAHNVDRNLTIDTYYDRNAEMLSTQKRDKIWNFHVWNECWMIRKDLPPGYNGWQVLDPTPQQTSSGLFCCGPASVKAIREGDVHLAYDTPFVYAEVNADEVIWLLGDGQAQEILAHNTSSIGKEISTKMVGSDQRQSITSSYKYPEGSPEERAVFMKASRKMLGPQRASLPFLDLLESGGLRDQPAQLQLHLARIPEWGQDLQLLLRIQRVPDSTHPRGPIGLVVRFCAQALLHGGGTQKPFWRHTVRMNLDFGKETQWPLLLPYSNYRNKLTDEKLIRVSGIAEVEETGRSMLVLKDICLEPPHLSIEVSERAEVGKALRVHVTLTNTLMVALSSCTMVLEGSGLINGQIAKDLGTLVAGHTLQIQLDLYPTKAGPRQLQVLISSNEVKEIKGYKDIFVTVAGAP

T2: human transglutaminase type 2 (TG2) (human, UniProt P21980 1-687)
T2 sequence: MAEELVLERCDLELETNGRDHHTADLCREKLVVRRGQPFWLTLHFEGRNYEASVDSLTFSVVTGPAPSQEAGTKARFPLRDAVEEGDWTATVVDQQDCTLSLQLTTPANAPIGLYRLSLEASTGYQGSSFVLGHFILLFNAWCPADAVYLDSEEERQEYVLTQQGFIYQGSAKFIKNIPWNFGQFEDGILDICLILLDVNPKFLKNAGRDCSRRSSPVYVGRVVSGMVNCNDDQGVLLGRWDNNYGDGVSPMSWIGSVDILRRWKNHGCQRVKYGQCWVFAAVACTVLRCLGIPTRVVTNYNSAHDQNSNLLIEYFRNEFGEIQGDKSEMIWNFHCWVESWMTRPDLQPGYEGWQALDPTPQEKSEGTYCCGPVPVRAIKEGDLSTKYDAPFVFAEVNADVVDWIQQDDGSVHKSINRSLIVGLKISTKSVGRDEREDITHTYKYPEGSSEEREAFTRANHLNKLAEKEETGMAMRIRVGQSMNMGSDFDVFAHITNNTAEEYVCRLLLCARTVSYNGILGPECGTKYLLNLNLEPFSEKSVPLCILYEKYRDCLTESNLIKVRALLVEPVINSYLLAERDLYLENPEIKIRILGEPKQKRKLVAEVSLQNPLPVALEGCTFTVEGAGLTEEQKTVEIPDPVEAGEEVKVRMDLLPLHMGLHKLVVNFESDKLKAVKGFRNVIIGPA

T3: mouse TG2 (mouse, UniProt P21981 1-686, limits assumed)
T3 sequence: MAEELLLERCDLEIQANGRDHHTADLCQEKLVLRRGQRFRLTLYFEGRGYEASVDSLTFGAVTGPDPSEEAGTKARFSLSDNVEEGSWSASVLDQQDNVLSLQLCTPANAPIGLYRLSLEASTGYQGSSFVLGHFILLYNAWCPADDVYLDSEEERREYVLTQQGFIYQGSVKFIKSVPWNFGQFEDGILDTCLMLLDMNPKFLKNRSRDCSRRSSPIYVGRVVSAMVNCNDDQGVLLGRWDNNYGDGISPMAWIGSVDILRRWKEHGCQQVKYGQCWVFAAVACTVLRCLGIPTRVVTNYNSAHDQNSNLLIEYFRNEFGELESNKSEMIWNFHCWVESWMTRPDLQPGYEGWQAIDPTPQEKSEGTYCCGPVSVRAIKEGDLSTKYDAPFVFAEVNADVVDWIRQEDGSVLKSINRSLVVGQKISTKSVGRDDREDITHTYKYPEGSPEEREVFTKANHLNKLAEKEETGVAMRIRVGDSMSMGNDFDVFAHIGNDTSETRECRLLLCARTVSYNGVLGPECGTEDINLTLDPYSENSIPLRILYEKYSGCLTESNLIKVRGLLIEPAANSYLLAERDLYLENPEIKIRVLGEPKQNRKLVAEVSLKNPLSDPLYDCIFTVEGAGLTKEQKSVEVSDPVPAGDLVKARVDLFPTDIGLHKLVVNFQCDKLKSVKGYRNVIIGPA

B1: AG9 murine monoclonal antibody (antibody, V domains shown)
VH: EVQLQQSGPELVKPGASVKMSCRASGYTFTTYVIHWVKQKPGQGLEWIGYINPYNDGARYNEKFKGKATLTSDKSSTTAYMELSSLTSEDSAVYYCARLSSDYWGQGTTLTVSS
VL: DVLMTQNPLSLPVSLGDQASISCRSSRSIEHSNGNTYLEWYLQKPGQSPKFLIYKVSNRFSGVPDRFSGSGSGTDFTLRISSVEAEDLGVYYCFQGSHVPFTFGGGTKLEIK
notes: Mouse hybridoma IgG; heavy chain amplified with primer MHCG1, kappa light chain
B2: EH6 murine monoclonal antibody (antibody, V domains shown)
VH: B1 VH with R23K, T31S, I34M, Y50F, A58T, R59K, S75A, L99F, D102G
VL: B1 VL with N7T, R27Q, E30V, F51L, R79K, S82R, E84G, F94L, G96V, G105S
notes: Mouse hybridoma IgG; heavy chain amplified with primer MHCG2B, kappa light chain
B3: AH3 murine monoclonal antibody (antibody, V domains shown)
VH: B1 VH
VL: B1 VL
notes: as for B2
B4: JE12 murine monoclonal antibody (antibody, V domains shown)
VH: B1 VH with R23K, T28R, T31S, I34M, P41S, R59K, T77S
VL: B1 VL with R27Q, S32I, S82R, V90I
notes: as for B1
B5: DH2 murine monoclonal antibody (antibody, V domains shown)
VH: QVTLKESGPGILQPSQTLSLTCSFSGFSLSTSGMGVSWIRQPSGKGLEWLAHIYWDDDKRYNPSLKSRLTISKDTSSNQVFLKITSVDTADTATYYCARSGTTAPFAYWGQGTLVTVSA
VL: QIVLTQSPAIMSASPGEKVTMTCSASSSVSYMYWYQQKPGSSPRLLIYDTSNLASGVPVRFSGSGSGTSYSLTISRMEAEDAATFYCQQWSSSPLTFGAGTKLELK
notes: Mouse hybridoma IgG; heavy chain amplified with primer MHCG2B, kappa light chain; also called mDH001
B6: DD9 murine monoclonal antibody (antibody, V domains shown)
VH: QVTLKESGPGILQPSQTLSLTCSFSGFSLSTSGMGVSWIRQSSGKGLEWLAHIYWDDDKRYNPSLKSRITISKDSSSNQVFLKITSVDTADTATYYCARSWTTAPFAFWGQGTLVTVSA
VL: B5 VL with S30D, E78G, F85Y, S91N
notes: Mouse hybridoma IgG; heavy chain amplified with primer MHCG2A, kappa light chain; also called mDD9001
B7: AB1 murine monoclonal antibody (antibody, V domains shown)
VH: EVQLVESGGGLVKPGGSLKLSCAASGFTLSSSAMSWVRQTPDRRLEWVATISVGGGKTYYPDSVKGRFTISRDNAKNTLYLQMNSLRSEDTAMYYCAKLISLYWGQGTTLTVSS
VL: DIKMTQSPSSMYASLGERVTITCKASQDINSYLTWFQQKPGKSPKTLIYRTNRLFDGVPSRFSGSGSGQDFFLTISSLEYEDMGIYYCLQYDDFPYTFGGGTKLEIK
notes: Mouse hybridoma IgG; heavy chain amplified with constant region primer MHCG1, kappa light chain; also called mAB003
B8: DC1 murine monoclonal antibody (antibody, V domains shown)
VH: EVQLVESGGGLVKPGGSLKLSCAASGFTLSTHAMSWVRQTPEKRLEWVATISSGGRSTYYPDSVKGRFTISRDNVKNTLYLQLSSLRSEDTAVYFCARLISTYWGQGTTLTVSS
VL: B7 VL with K3T, M11I, T46I, R50L, T51V, F55V, F71Y, F72A
notes: Mouse hybridoma IgG; heavy chain amplified with primer MHCG1, kappa light chain; also called mDC001
B9: BB7 murine monoclonal antibody (antibody, V domains shown)
VH: AVQLVESGGGLVKPGGSLKLSCAASGIIFSSSAMSWVRQTPEKRLEWVATISSGGRSTYYPDSVKGRFTVSRDSAKNTLYLQMDSLRSEDTAIYYCAKLISPYWGQGTTLTVSS
VL: B7 VL with D1A, T20I, R50L, F55M, D70E, F72L, S77G, Y80H, D92V
notes: Mouse hybridoma IgG; heavy chain amplified with primer MHCG1, kappa light chain; also called mBB001

Molecular target: T1, TG7
Assay: ELISA, purified IgG at 0.1 ug/ml, plates coated with 100 ng of each TG [panel B]
Protocol: Conditioned medium or purified IgG were tested for reactivity to transglutaminase family members. The ability of each to bind to each transglutaminase (TG1, TG2, TG3, TG5, TG7 and Factor XIIIa; all Zedira) was determined using a plate binding assay. Microtiter plates (Costar, Cambridge, UK) were coated with recombinant TG (Zedira, Darmstadt, Germany) in 50 μl of 0.1 M bicarbonate/carbonate buffer (pH 9.6) overnight at 4° C. Plates were blocked for 2 h at 37° C. with 200 μl PBS containing 3% w/v BSA. Plates were washed three times with PBS containing 0.05% Tween 20 (washing buffer) and 100 μl of diluted conditioned medium (dilution 1:5 to 1:20) or purified anti-TG2 catalytic core mAbs was added. Plates were incubated for a further 1 h at room temperature. The washing step was repeated and anti-mouse gamma chain-horseradish peroxidase (1:5000) in PBS containing 0.05% Tween 20 (v:v) and 1% BSA (w:v) (Sigma, Poole UK) was added for 1 h. […] The reaction was stopped by adding 25 μl of 0.1 M H_2SO_4 and the absorbance at 450 nm was determined.

| binding result | Binder |
| --- | --- |
| no binding (tested: 0.1 ug/ml) | B1 |
| no binding (tested: 0.1 ug/ml) | B2 |
| no binding (tested: 0.1 ug/ml) | B3 |
| no binding (tested: 0.1 ug/ml) | B4 |
| no binding (tested: 0.1 ug/ml) | B5 |
| no binding (tested: 0.1 ug/ml) | B6 |
| no binding (tested: 0.1 ug/ml) | B7 |
| no binding (tested: 0.1 ug/ml) | B8 |

Molecular target: T2, human transglutaminase type 2 (TG2)
Assay: cell-based or functional assay

| IC50 of TG2 activity, 3H putrescine incorporation | Binder |
| --- | --- |
| 4.87e-05 mg/ml IgG per ng TG2 | B1 |
| 6.9e-05 mg/ml IgG per ng TG2 | B2 |
| 7.8e-05 mg/ml IgG per ng TG2 | B3 |
| 6.7e-05 mg/ml IgG per ng TG2 | B5 |
| 5.24e-05 mg/ml IgG per ng TG2 | B6 |
| 1.09e-05 mg/ml IgG per ng TG2 | B7 |
| 1.23e-05 mg/ml IgG per ng TG2 | B8 |
| 1.59e-05 mg/ml IgG per ng TG2 | B9 |

Molecular target: T3, mouse TG2
Assay: western blot and ELISA

| binding result | Binder |
| --- | --- |
| binds | B2 |
| binds | B4 |
| binds | B5 |
| binds | B6 |
| binds | B8 |
| binds | B9 |
